Here are results for six molecules from patent EP4714973A1 (Gracell Bioscience (Shanghai) Co., Ltd., dated 2026).

The target in assay [1] is T1, CLL1 on the surface of cells (HL60, KG1, Hela-CLL1) (UniProt Q5QGZ9 1-265, limits assumed).
T1 construct: whole, on cells; HL60 and KG1 are human cell lines; also called CLEC12A; CD371
T1 sequence (looked up): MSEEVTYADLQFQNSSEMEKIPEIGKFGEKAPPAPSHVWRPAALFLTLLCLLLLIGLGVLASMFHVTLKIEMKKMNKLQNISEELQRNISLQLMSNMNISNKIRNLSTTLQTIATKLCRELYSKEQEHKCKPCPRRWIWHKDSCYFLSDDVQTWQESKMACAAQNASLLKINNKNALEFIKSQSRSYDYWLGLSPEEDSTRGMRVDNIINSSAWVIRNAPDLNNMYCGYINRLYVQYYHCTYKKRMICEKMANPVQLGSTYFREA
The assay is described as follows: flow cytometry, serial dilution of VHH-mIgG2a Fc on HL60 cells.

Assay [2] concerns the target T1, CLL1 on the surface of cells (HL60, …). Description: flow cytometry, serial dilution of scFv-mIgG2a Fc on HL60 cells (comparator, weaker signal). For orientation: Flow cytometry measures light scatter and fluorescence of single cells or particles in a stream.

B1: C3 single-domain antibody with the Fc fragment of murine IgG2a at the C-terminal (Fc fusion, not shown: a dimerising Fc or GST; small tags and cut ends)
VHH: QVQLVESGGGLVQPGGSLRLSCAASGFTFSSYAMGWARQVPGKEVEWVSGIYSDGRTYYADSVKGRFTISRDNAKNEVYLQMNSLKPEDTAVYYCAPEPGQGVGDYWGQGTQVTVSS
notes: also called C3 VHH-mIgG2aFc
In the case of B1, in assay [1], the binding result was “binds”.

B2: C1 single-domain antibody with the Fc fragment of murine IgG2a at the C-terminal (Fc fusion)
chain: QVQLVESGGGLVQPGGSLRLSCAASGFTFSSKTMGWARQVPGKAIEWLSGIYSDGSTYYADSVKGRFTISRDNAKNMVYLQMNSLKPEDTAVYYCATEDLTSYGRGTQVTVSS
notes: also called C1 VHH-mIgG2aFc; not shown: Fc fragment of murine IgG2a, added to the C-terminal of the VHH
As for B2, the binding result in assay [1] is “binds”.

B3: C5 single-domain antibody with the Fc fragment of murine IgG2a at the C-terminal (Fc fusion, not shown: a dimerising Fc or GST; small tags and cut ends)
VHH: QVQLVESGGGLVQPGGSLRLSCAASGFTFSSYDMGWARQVPGKAVEWVSGIYSDGSTYYADSVKGRFTISRDNAKNTVYLQMNSLKPEDTAVYYCATDPLTSELRSWGQGTQVTVSS
notes: also called C5 VHH-mIgG2aFc
For the molecule B3, in assay [1], the binding result is given as “binds”.

B4: scFv antibody M26 with the Fc fragment of murine IgG2a at the C-terminal (Fc fusion, not shown: a dimerising Fc or GST; small tags and cut ends)
scFv: EVQLQQSGPELVKPGASVKMSCKASGYTFTSYFIHWVKQKPGQGLEWIGFINPYNDGSKYNEKFKGKATLTSDKSSSTAYMELSSLTSEDSAVYYCTRDDGYYGYAMDYWGQGTSVTVSSGGGGSGGGGSGGGGSDIQMTQSPSSLSASLGERVSLTCRATQELSGYLSWLQQKPDGTIKRLIYAASTLDSGVPKRFSGNRSGSDYSLTISSLESEDFADYYCLQYAIYPYTFGGGTKLEIK
notes: also called M26 scFv
With B4, the binding result in assay [2] is on record as “binds”.

B5: C7 single-domain antibody with the Fc fragment of murine IgG2a at the C-terminal (Fc fusion, not shown: a dimerising Fc or GST; small tags and cut ends)
VHH: QVQLVESGGGLVQPGGSLRLSCAASGFTFSSYAMGWARQVPGKEVEWVSGIYSDGSTNYADSVKGRFTISRDNAKNTVYLQMNSLRPEDTAVYHCATDPTVHSDLPVWGQGTLVTVSS
notes: also called C7 VHH-mIgG2aFc
For B5, in assay [1], the binding result is on record as “binds”.

B6: C9 single-domain antibody with the Fc fragment of murine IgG2a at the C-terminal (Fc fusion, not shown: a dimerising Fc or GST; small tags and cut ends)
VHH: QVQLVESGGGLVQPGGSLRLSCAASGFTFSSYAMGWARQVPGKDVEWVSGIYSDGSTYYADSVKGRFTISRYNAKNTVYLQMNSLKPEDTAVYYCATDPTLENQTTAWGQGTQVTVSS
notes: also called C9 VHH-mIgG2aFc
For B6, the binding result in assay [1] was “binds”.
